From patent US20230174617A1 (PROGEN, published 2023)
Each block holds one binder with its values, some of them ahead of it.

Legend:
[1] = target: anti-DNP mouse IgE (Sigma); assay: cell-based or functional assay
human IgE = assay: BLI (Octet K2), fusion protein on AR2G sensor, human IgE as analyte
[2] = target: anti-DNP mouse IgE (Sigma); assay: BLI (Octet K2), fusion protein on sensor, anti-DNP mouse IgE as analyte, first test
Experimental: (§1) Specifically, 200 μl of D. W. was dispensed into a 96-well plate, and then an amine biosensor included in the kit was inserted to perform hydration for 10 minutes. Subsequently, after 200 μl of D. W. was additionally dispensed, EDC and NHS were mixed at 1:1 in an amount of 1/20 of the required sample amount and then diluted with D. W., and 200 μl of the resultant was dispensed into the 96-well plate. Next, the FcεRIα-modified IgG4 Fc protein and the FcεRIα-NTIG-IL-10Vm fusion protein were diluted to 10 μg/ml in a 10 mM acetate solution having a pH of 5.0, and then 200 μl of the resultant was added to the 96-well plate. After 200 μl of 1 M ethanolamine was added to the 96-well plate, the biosensor plate and the sample plate were placed in an Octet®-K2 instrument and measured. After the measurement was completed, 200 μl of a 1× kinetics buffer solution was added to the sample plate, and then a baseline was determined.

[3] = target: anti-DNP mouse IgE (Sigma); assay: BLI (Octet K2), fusion protein on sensor, anti-DNP mouse IgE as analyte, third test
Experimental: as §1

[4] = target: anti-DNP mouse IgE (Sigma); assay: BLI (Octet K2), fusion protein on sensor, anti-DNP mouse IgE as analyte, second test
Experimental: as §1

[5] = target: anti-DNP mouse IgE (Sigma); assay: BLI (Octet K2), fusion protein on AR2G sensor, anti-DNP mouse IgE as analyte, first test
Experimental: as §1

[6] = target: anti-DNP mouse IgE (Sigma); assay: BLI (Octet K2), fusion protein on AR2G sensor, anti-DNP mouse IgE as analyte, third test
Experimental: as §1

[7] = target: anti-DNP mouse IgE (Sigma); assay: BLI (Octet K2), fusion protein on AR2G sensor, anti-DNP mouse IgE as analyte, second test
Experimental: as §1

[8] = target: anti-DNP mouse IgE (Sigma); assay: BLI (Octet K2), fusion protein on AR2G sensor, anti-DNP mouse IgE as analyte, mean of three tests
Experimental: as §1

[9] = target: T1, IL-10 receptor 1 (IL-10R1), IL-10R His-tag protein (UniProt Q13651 22-235, limits assumed); assay: BLI (Octet K2), IL-10R His-tag protein on AR2G sensor
T1 construct: not shown: His tag
T1 sequence (looked up): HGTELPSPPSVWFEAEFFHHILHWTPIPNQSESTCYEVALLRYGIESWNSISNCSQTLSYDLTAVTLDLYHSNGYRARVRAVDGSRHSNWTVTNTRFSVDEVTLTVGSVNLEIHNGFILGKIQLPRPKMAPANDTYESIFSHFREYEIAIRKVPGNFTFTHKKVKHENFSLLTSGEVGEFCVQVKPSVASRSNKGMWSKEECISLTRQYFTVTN
Experimental: (§2) For the analysis, the present inventors attached an IL-10R His-tag protein to a 96-well plate using a Dip and Read™ Amine Reactive 2nd Generation (AR2G) Reagent Kit (forteBio, Cat No. 18-5092). Specifically, 200 μl of D. W. was dispensed into a 96-well plate, and an amine biosensor included in the kit was inserted to perform hydration for 10 minutes. Subsequently, after 200 μl of D. W. was additionally dispensed into a new 96-well plate, EDC and NHS were mixed at 1:1 in an amount of 1/20 of the required sample amount and then diluted with D. W., and 200 μl of the resultant was dispensed into the 96-well plates. Next, the IL-10R His-tag protein was diluted to 10 μg/ml in a 10 mM acetate solution having a pH of 5.0, and then 200 μl of the resultant was added to the 96-well plates. After 200 μl of 1 M ethanolamine was added to the 96-well plates, the biosensor plate and the sample plate were placed in an Octet®-K2 instrument and measured. After the measurement was completed, 200 μl of a 1× kinetics buffer solution was added to the sample plate, and then a baseline was determined.

[10] = target: T1, IL-10 receptor 1 (IL-10R1), IL-10R …; assay: BLI (Octet K2), IL-10R His-tag protein on AR2G sensor, fusion protein 62.5 to 1,000 nM
Experimental: as §2

[11] = target: T2, recombinant human neonatal Fc receptor (rhFcRn, R&D systems) (human, UniProt P55899 24-297; P61769 21-119); assay: SPR, steady state affinity, rhFcRn on chip, pH 6.0
T2 construct: Bought reagent; also called recombinant FcRn
Experimental: (§3) As the analyzer, Biocore 8K (GE Healthcare, USA) was used, and all reagents used in the analysis were purchased from GE Healthcare. […] The experiment was performed at a flow rate of 30 μl/min at 25° C., an association of an analyte was performed for 60 seconds, and then dissociation was performed for 60 seconds. […] At this time, the buffer solution was replaced with a PBS buffer solution having a pH of 7.4 during regeneration.
(§4) During the regeneration, a PBS buffer solution having a pH of 7.4 was used.

FcγRIIb = target: T3, FcγRIIb (UniProt P31994 46-217, limits assumed); assay: BLI, single trace with fit; PBS panel as control
T3 sequence (looked up): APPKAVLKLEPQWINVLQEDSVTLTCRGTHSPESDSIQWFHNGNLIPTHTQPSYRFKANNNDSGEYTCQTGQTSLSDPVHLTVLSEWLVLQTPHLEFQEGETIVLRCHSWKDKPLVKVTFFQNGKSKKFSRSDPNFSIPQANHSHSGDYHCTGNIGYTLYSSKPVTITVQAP

FcγRIIIb = FcγRIIIb (UniProt O75015 17-200, limits assumed); assay: BLI, single trace with fit; PBS panel as control
FcγRIIa = target: T4, FcγRIIa (UniProt P12318 36-218, limits assumed); assay: BLI, single trace with fit; PBS panel as control
T4 sequence (looked up): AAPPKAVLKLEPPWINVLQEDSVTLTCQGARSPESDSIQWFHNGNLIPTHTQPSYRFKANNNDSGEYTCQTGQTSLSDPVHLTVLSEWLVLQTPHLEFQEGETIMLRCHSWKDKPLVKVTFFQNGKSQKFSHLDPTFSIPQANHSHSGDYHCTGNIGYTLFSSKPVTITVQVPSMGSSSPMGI

[12] = target: T2, recombinant human neonatal Fc receptor …; assay: SPR, rhFcRn on CM5, analyte in PBST pH 6.0, steady state affinity
Text: as §4

[13] = target: T5, Fc gamma receptor I (FcγRI) (UniProt P12314 16-288, limits assumed); assay: BLI; concentrations and the immobilised partner are not given
T5 construct: also called FcγR1

[14] = target: T6, Fc gamma receptor IIIa (FcγRIIIa) (UniProt P08637 17-208, limits assumed); assay: as above
T6 construct: also called FcγR3a

complement C1q = target: T7, complement C1q (UniProt P02745 23-245; P02746 28-253; P02747 29-245); assay: ELISA, PG-11 coated at 2 µg/ml, C1q in varied concentration, OD 450 nm
T7 construct: the method text names a C1q-HRP conjugate; also called C1q-HRP conjugate
Experimental: Subsequently, 100 μl of each diluted sample was loaded into each well and reacted overnight at 4° C. Next, washing was performed three times by adding 300 μl of a washing buffer solution to the plate each time, 200 μl of a blocking buffer solution (2% BSA/PBS) was added to each well and reacted at room temperature for 2 hours. 300 μl of the washing buffer solution was added to the plate, then washing was repeatedly performed three times, an anti-C1q antibody was diluted with an assay buffer solution to 10, 3, 1, 0.3, and 0.1 μg/ml by ⅓, and mixed (duplication) in an amount of 50 μl in each well, and then the resultant was reacted at room temperature for 2 hours. Then, the washing buffer solution was mixed in the plate by 300 μl each time and washing was repeatedly performed eight times. A C1q-HRP conjugate was diluted 400-fold, and 50 μl of the resultant was added to each well and reacted at room temperature for 1 hour. The washing buffer solution was added to the plate by 300 μl each time, washing was repeatedly performed eight times, 50 μl of TMB as a substrate was mixed, and the resultant was reacted at room temperature. When the color development reaction appeared in blue, 50 μl of a stop solution was added to each well to stop the reaction, and then optical density was measured using a microplate reader set at 450 nm.

[15] = target: T2, recombinant human neonatal Fc receptor …; assay: SPR (Biacore 8K), rhFcRn amine-coupled on CM5, analyte in PBST pH 6.0, steady state affinity
Experimental: as §3

T5 sequence (P12314 16-288 limits assumed): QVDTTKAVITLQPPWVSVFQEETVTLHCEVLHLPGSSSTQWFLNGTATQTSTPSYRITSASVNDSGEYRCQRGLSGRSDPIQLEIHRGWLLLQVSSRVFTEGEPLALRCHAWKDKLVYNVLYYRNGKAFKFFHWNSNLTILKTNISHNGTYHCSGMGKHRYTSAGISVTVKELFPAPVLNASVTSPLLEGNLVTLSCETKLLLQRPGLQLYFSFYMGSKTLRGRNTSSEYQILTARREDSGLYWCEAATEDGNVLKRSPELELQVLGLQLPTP
Chain of FcγRIIIb (O75015 17-200 limits assumed): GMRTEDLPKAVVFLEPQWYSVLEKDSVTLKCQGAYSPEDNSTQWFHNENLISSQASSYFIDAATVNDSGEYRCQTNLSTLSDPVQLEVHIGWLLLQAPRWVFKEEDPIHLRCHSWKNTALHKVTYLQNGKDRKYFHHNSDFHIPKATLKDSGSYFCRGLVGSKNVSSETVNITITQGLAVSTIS
T7 sequence (P02745 23-245 limits assumed, chain 1 of 3): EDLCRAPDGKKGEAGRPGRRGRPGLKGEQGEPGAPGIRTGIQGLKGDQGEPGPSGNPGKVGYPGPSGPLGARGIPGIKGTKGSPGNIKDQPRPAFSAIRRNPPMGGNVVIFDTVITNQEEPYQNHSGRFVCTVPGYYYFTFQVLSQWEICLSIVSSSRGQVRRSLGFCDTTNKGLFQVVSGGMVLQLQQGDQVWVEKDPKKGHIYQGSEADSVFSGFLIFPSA
T7 sequence (P02746 28-253 limits assumed, chain 2 of 3): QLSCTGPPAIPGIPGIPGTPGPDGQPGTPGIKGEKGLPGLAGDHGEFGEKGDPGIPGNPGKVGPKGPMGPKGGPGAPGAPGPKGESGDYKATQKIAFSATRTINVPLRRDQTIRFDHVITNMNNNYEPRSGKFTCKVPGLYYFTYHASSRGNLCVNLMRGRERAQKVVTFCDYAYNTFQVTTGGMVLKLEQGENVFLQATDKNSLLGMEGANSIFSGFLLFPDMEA
T7 sequence (P02747 29-245 limits assumed, chain 3 of 3): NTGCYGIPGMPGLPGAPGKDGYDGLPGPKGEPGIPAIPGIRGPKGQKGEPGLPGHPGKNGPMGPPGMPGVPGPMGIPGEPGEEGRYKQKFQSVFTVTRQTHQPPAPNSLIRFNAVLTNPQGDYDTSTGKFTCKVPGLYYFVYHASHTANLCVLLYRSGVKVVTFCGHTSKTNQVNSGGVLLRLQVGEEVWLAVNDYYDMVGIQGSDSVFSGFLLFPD
T6 sequence (P08637 17-208 limits assumed): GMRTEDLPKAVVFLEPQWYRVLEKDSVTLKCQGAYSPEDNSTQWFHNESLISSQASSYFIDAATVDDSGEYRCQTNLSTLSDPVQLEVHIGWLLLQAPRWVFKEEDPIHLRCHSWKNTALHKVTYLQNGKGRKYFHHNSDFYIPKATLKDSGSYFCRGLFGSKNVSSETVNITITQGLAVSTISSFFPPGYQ

B2: PG-088 (NTIG-IL-10V) (Fc fusion)
chain: GGGGSGGGGSGGGGSEPKSSDKTHTCPPCPSHTQPLGVFLFPPKPKDQLMISRTPEVTCVVVDVSQEDPEVQFNWYVDGVEVHNAKTKPREEQFNSTYRVVSVLTVLHQDWLNGKEYKCKVSNKGLPSSIEKTISKAKGQPREPQVYTLPPSQEEMTKNQVSLTCLVKGFYPSDIAVEWESNGQPENNYKTTPPVLDSDGSFFLYSRLTVDKSRWQEGNVFSCSVLHEALHNHYTQKSLSLSLGKAAGSGGGGGSGGGGSGGGGSSPGQGTQSENSCTHFPGNLPNMLRDLRDAFSRVKTFFQMKDQLDNLLLKESLLEDFKGYLGCQALSEMIQFYLEEVMPQAENQDPDAKAHVNSLGENLKTLRLRLRRCHRFLPCENKSKAVEQVKNAFNKLQEKGIYKAMSEFDIFINYIEAYMTMKIRN
notes: also called dimeric IL-10 variant fusion protein
koff [9]: 0.0008 s⁻¹
kon [9]: 71100 M⁻¹ s⁻¹
Kd [10]: 11.1 nM

B4: PG-11 (GLP-1E-NTIG) (Fc fusion)
chain: HGEGTFTSDVSSYLEGQAAKEFIAWLVKGGPSSGAPPPSGGGGSGGGGSGGGGSEKEKEEQEERTHTCPPCPSHTQPLGVFLFPPKPKDQLMISRTPEVTCVVVDVSQEDPEVQFNWYVDGVEVHNAKTKPREEQFNSTYRVVSVLTVLHQDWLNGKEYKCKVSNKGLPSSIEKTISKAKGQPREPQVYTLPPSQEEMTKNQVSLTCLVKGFYPSDIAVEWESNGQPENNYKTTPPVLDSDGSFFLYSRLTVDKSRWQEGNVFSCSVLHEALHNHYTQKSLSLSLGK
notes: Produced in ExpiCHO and purified on protein A. The hinge is said in general to dimerise the fusion, but no copy number is stated for PG-11; also called PG-II
fold affinity against Rituximab [11]: ~9.3 fold
fold affinity against Trulicity [11]: ~5.3 fold
binding result (FcγRIIb): no binding
binding result (FcγRIIIb): no binding
binding result (FcγRIIa): no binding
Kd [12]: 256 nM
binding result [13]: no binding
binding result [14]: no binding
binding result (complement C1q): no binding (tested: 10.0 µg/mL)
Kd [15]: 397 nM

Continued, values first:

IC50 (nM), β-hexosaminidase release from mouse marrow-derived mast cells, column headed 'Fourth test' (equals the mean of the three tests) [1]: 16.9 nM
IC50 (nM), β-hexosaminidase release from mouse marrow-derived mast cells, first test [1]: 21.6 nM
IC50 (nM), β-hexosaminidase release from mouse marrow-derived mast cells, second test [1]: 14.8 nM
IC50 (nM), β-hexosaminidase release from mouse marrow-derived mast cells, third test [1]: 14.4 nM
Kd (human IgE): 0.346 nM
koff (human IgE): 7.59e-05 s⁻¹
kon (human IgE): 219000 M⁻¹ s⁻¹
koff [2]: 3.4e-05 s⁻¹
kon [2]: 152000 M⁻¹ s⁻¹
koff [3]: 4.82e-05 s⁻¹
kon [3]: 139000 M⁻¹ s⁻¹
koff [4]: 4.06e-05 s⁻¹
kon [4]: 144000 M⁻¹ s⁻¹
Kd [5]: 0.224 nM
Kd [6]: 0.346 nM
Kd [7]: 0.282 nM
Kd [8]: 0.284 nM
B1: PG-110 (FcεRIα-NTIG-IL-10Vm) (Fc fusion)
chain: VPQKPKVSLNPPWNRIFKGENVTLTCNGNNFFEVSSTKWFHNGSLSEETNSSLNIVNAKFEDSGEYKCQHQQVNESEPVYLEVFSDWLLLQASAEVVMEGQPLFLRCHGWRNWDVYKVIYYKDGEALKYWYENHNISITNATVEDSGTYYCTGKVWQLDYESEPLNITVIKAPREKYWLQGGGGSGGGGSGGGGSEPKSSDKTHTCPPCPSHTQPLGVFLFPPKPKDQLMISRTPEVTCVVVDVSQEDPEVQFNWYVDGVEVHNAKTKPREEQFNSTYRVVSVLTVLHQDWLNGKEYKCKVSNKGLPSSIEKTISKAKGQPREPQVYTLPPSQEEMTKNQVSLTCLVKGFYPSDIAVEWESNGQPENNYKTTPPVLDSDGSFFLYSRLTVDKSRWQEGNVFSCSVLHEALHNHYTQKSLSLSLGAAGSGGGGGSGGGGSGGGGSSPGQGTQSENSCTHFPGNLPNMLRDLRDAFSRVKTFFQMKDQLDNLLLKESLLEDFKGYLGCQALSEMIQFYLEEVMPQAENQDPDAKAHVNSLGENLKTLRLRLRRCHRFLPCENGGSGGSGGSKSKAVEQVKNAFNKLQEKGIYKAMSEFDIFINYIEAYMTMKIRN
notes: Produced in a CHO DG44 cell line

fold KD against the dimeric IL-10 fusion protein of Example 2-3 [9]: ~3 fold
koff [9]: 0.0006 s⁻¹
kon [9]: 20600 M⁻¹ s⁻¹
Kd [10]: 29.2 nM
B3: PG-088m (NTIG-IL-10Vm) (Fc fusion)
chain: SHTQPLGVFLFPPKPKDQLMISRTPEVTCVVVDVSQEDPEVQFNWYVDGVEVHNAKTKPREEQFNSTYRVVSVLTVLHQDWLNGKEYKCKVSNKGLPSSIEKTISKAKGQPREPQVYTLPPSQEEMTKNQVSLTCLVKGFYPSDIAVEWESNGQPENNYKTTPPVLDSDGSFFLYSRLTVDKSRWQEGNVFSCSVLHEALHNHYTQKSLSLSLGAAGSGGGGGSGGGGSGGGGSSPGQGTQSENSCTHFPGNLPNMLRDLRDAFSRVKTFFQMKDQLDNLLLKESLLEDFKGYLGCQALSEMIQFYLEEVMPQAENQDPDAKAHVNSLGENLKTLRLRLRRCHRFLPCENGGSGGSGGSKSKAVEQVKNAFNKLQEKGIYKAMSEFDIFINYIEAYMTMKIRN
notes: also called monomeric IL-10 variant fusion protein
